Source: article PMC11194106

Target: Streptococcus pyogenes Cas9 (SpyCas9) (UniProt Q99ZW2)
Experiment: SEC co-migration followed by SDS-PAGE, band intensity quantified
Conditions: parent: est. 99; read off a plot

Row | Substance | response [%]
1 | AcrIIA28 from Streptococcus phage Javan 128 K48D | 93
2 | AcrIIA28 from Streptococcus phage Javan 128 K38W | 83
3 | AcrIIA28 from Streptococcus phage Javan 128 S81W | 21
4 | AcrIIA28 from Streptococcus phage Javan 128 S34W | 97
5 | AcrIIA28 from Streptococcus phage Javan 128 K7D | 41
6 | AcrIIA28 from Streptococcus phage Javan 128 W45I | 3
7 | AcrIIA28 from Streptococcus phage Javan 128 H30W | 81
8 | AcrIIA28 from Streptococcus phage Javan 128 R41W | 96
